Results taken from paper PMC5097833 (Chemico-biological interactions, 2015).

B1: mouse anti-human BChE monoclonal antibody B2 12-1 (antibody, V domains shown)
VH: EVQLQQSGPELVKPGASVKISCKASGYTFTDYSMHWVKLSHGKSLEWIGYIYPYNDDTDYNQKFKTKATLTVDSSSSITYLELRSLTSEDSAVYYCARSDGYSYYFDYWGQGTTLTVSS
VL: DIVMTQSPATLSVTPGDRVSLSCRASQSISDYLHWYQQKSHESPRLLIKYASQSISGIPSRFSGGGSGSDFTLSINSVEPEDVGVYYCQNGHRFPLTFGAGTKLELK
B2: mouse anti-human BChE monoclonal antibody 11D8 (antibody, V domains shown)
VH: QVQLQQSGAELARPGASVKLSCKASGYTFTSQWLQWVKQRPGQGLEWIGAIYPGDGDTRYTQKFKGKATLTADKSSSTAYMQLTNLAPEDSAVYYCARSSMDYWGQGTSVTVSS
VL: DILLTQSPAILSVSPGERVRLSCRASQSCGTSIYWYQQRTNGSPRLLIMYASEPFSGIPSRFSGSGSGTDFTLSINSVESEDIADYYCQQSNSWPWTFGGGTRLEIK

Target: human butyrylcholinesterase (human (endogenous in plasma), UniProt P06276)
Experiment: pull-down

Chain of human butyrylcholinesterase (P06276 29-602): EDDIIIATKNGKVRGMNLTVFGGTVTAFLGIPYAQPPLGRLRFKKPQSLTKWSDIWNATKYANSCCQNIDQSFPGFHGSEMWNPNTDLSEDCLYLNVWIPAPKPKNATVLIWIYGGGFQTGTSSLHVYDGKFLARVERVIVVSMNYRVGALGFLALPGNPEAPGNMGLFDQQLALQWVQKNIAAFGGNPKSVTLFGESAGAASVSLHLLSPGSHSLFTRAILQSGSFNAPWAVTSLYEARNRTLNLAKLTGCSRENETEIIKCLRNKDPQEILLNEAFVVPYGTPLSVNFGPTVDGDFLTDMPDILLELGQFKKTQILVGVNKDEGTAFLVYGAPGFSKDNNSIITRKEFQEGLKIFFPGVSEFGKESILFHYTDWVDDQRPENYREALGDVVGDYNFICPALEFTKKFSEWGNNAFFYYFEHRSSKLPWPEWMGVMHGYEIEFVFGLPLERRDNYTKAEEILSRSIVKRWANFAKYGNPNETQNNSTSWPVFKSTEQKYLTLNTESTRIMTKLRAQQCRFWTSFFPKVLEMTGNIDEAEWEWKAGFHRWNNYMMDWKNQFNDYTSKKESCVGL

Row | Binder | binding result
1 | B1 | binds
2 | B2 | binds
